Assay results taken from article PMC10272163, “Genome-wide association studies identify OsWRKY53 as a key regulator of salt tolerance in rice”.

Target: MBP-OsWRKY53 (Oryza sativa (rice), UniProt A7BEY7 1-487)
Assay: EMSA; 60 fmol probe, 2 ug protein; EMSA: 20 uL, 25 C 30 min, LightShift kit buffer (composition not given), 6% native PAGE, 0.5x TBE pH 8.3, 4 C; SPR: CM5 chip with anti-biotin antibody capturing biotin-oligo, 10 uL/min, reaction buffer composition and temperature not given
Conditions: protein: recombinant; tags: MBP (N-terminal, pMal-c2x); label: biotin

Chain of MBP-OsWRKY53 (A7BEY7 entry or part of it): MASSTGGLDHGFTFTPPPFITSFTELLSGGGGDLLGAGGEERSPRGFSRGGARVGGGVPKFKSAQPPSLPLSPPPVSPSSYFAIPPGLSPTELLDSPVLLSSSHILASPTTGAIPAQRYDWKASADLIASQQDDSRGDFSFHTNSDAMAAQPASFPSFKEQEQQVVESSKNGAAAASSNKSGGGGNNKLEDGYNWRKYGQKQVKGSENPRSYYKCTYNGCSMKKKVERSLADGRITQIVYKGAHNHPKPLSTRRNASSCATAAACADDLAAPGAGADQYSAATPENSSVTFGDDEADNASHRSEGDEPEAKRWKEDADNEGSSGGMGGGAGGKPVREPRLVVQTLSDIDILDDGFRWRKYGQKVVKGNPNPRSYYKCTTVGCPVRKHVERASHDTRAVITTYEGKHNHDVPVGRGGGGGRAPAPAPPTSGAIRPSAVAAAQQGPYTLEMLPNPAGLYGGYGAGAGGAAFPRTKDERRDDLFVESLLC

| Binder | binding result |
| --- | --- |
| OsHKT1;5 (SKC1) promoter W-box probe, 48 bp (SKC1-biotin-F1) (dsDNA) DNA 1: ATAAGATGTTTTTGACTTTGGTCAAAGTCAAACTGTTTATGTTTGACC DNA 2: GGTCAAACATAAACAGTTTGACTTTGACCAAAGTCAAAAACATCTTAT | binds |
| OsMKK10.2 promoter W-box probe, 48 bp (MKK10.2-biotin-F1) (dsDNA) DNA 1: CGGTTTGGGAACCGACTTAGGGCGGTCAAGGCGCGAGCTGGCGCTCCG DNA 2: CGGAGCGCCAGCTCGCGCCTTGACCGCCCTAAGTCGGTTCCCAAACCG | binds |
